Assay results reported in patent publication US20240050517A1 (University of Washington, published 2024).
Positions of bridges follow the written chain, without caps; N, C: chain ends. Non-standard residues stand in square brackets, D forms with d.

T1: synthetic PSMα1 peptide (phenol soluble modulin α1) (Staphylococcus aureus, N-terminal formylation (fMet 1))
T1 construct: Synthetic peptide from Ontores Biotechnologies
T1 peptide: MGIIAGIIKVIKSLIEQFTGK


Experiments:
[1] = target: T1, synthetic PSMα1 peptide (phenol soluble …); test: BLI (BLItz), AP90 immobilized on APS tip, PSMα1 (50 µM) pre-incubated 146 h (transition region between α-sheet and β-sheet)
Protocol: (§1) All biolayer interferometry (BLI) experiments were performed on a BLItz™ biosensor system (ForteBio) using aminopropylsilane (APS) sensors. Sensors were hydrated in ddH₂O+22 μM ThT for 10 minutes prior to use. Designed peptides (dissolved in ddH₂O+22 μM ThT) were loaded onto the APS tip, a baseline was established in ddH₂O+22 μM ThT, and then the association of PSMα1 (prepped with DMSO+ddH₂O+22 μM ThT, as in the fibrillization assay at various pre-incubation times) was monitored over a period of three minutes. Dissociation was subsequently measured in ddH₂O+22 μM ThT, and the equilibrium dissociation constant (KD) was calculated using the BLItz™ analysis software (ForteBio).

[2] = target: T1, synthetic PSMα1 peptide (phenol soluble …); test: cell-based or functional assay
[3] = target: T1, synthetic PSMα1 peptide (phenol soluble …); test: BLI (BLItz), AP90 (180 µM) immobilized on APS tip, PSMα1 (50 µM) in solution, samples near the end of the aggregation lag phase (α-sheet-rich, about 48 h); lower end of the range; PSMα1 samples near the end of the aggregation lag phase
Protocol: as §1

| Binder | drop in binding affinity against α-sheet-rich PSMα1 (end of lag phase) [1] | inhibition of PSMα1 amyloid formation (ThT fluorescence), water + <1% DMSO, 30 µM PSMα1, 1:4 molar ratio PSMα1:AP90 [2] | inhibition of PSMα1 fibril formation (ThT fluorescence), LB medium + <1% DMSO, 1:4 molar ratio PSMα1:AP90 [2] | Kd [3] | inhibition of PSMα1 amyloid formation (ThT fluorescence), water + <1% DMSO, 30 µM PSMα1, 1:3 molar ratio PSMα1:AP407 [2] |
| --- | --- | --- | --- | --- | --- |
| Ac-RGE[dM]N[dL]S[dW]MNEYSGW[dT]M[dN]L[dK]MGR-NH2 (designed binder, SMILES CSCC[C@H](NC(=O)[C@@H](CCCCN)NC(=O)[C@H](CC(C)C)NC(=O)[C@@H](CC(N)=O)NC(=O)[C@H](CCSC)NC(=O)[C@H](NC(=O)[C@H](Cc1c[nH]c2ccccc12)NC(=O)CNC(=O)[C@H](CO)NC(=O)[C@H](Cc1ccc(O)cc1)NC(=O)[C@H](CCC(=O)O)NC(=O)[C@H](CC(N)=O)NC(=O)[C@H](CCSC)NC(=O)[C@@H](Cc1c[nH]c2ccccc12)NC(=O)[C@H](CO)NC(=O)[C@@H](CC(C)C)NC(=O)[C@H](CC(N)=O)NC(=O)[C@@H](CCSC)NC(=O)[C@H](CCC(=O)O)NC(=O)CNC(=O)[C@H](CCCNC(=N)N)NC(C)=O)[C@H](C)O)C(=O)NCC(=O)N[C@@H](CCCNC(=N)N)C(N)=O, Designed α-sheet single-turn hairpin peptide with alternating L/D residues in the strands; Made by solid phase synthesis; In the BLI assay it was loaded on an aminopropylsilane (APS) sensor tip at 180 µM; also called α1) [AP90 (Alternating Peptide #90)] | ~100 fold | 81% | 73% | 1000 to 1500 nM |  |
| Ac-RGE[dM]N[dL]C[dW]MNEYSGW[dC]M[dN]L[dK]MGR-NH2 (designed binder, disulfide 7-16; SMILES CSCC[C@H](NC(=O)[C@@H](CCCCN)NC(=O)[C@H](CC(C)C)NC(=O)[C@@H](CC(N)=O)NC(=O)[C@H](CCSC)NC(=O)[C@H]1CSSC[C@H](NC(=O)[C@@H](CC(C)C)NC(=O)[C@H](CC(N)=O)NC(=O)[C@@H](CCSC)NC(=O)[C@H](CCC(=O)O)NC(=O)CNC(=O)[C@H](CCCNC(=N)N)NC(C)=O)C(=O)N[C@H](Cc2c[nH]c3ccccc23)C(=O)N[C@@H](CCSC)C(=O)N[C@@H](CC(N)=O)C(=O)N[C@@H](CCC(=O)O)C(=O)N[C@@H](Cc2ccc(O)cc2)C(=O)N[C@@H](CO)C(=O)NCC(=O)N[C@@H](Cc2c[nH]c3ccccc23)C(=O)N1)C(=O)NCC(=O)N[C@@H](CCCNC(=N)N)C(N)=O) [AP407] |  |  |  |  | 69% |
